According to patent US20030028904A1 (published 2003):

Molecular target: T1, His-tagged Dock180 (UniProt Q14185 1-1865)
T1 construct: also called His-Dock180; CED-5/Dock180; not shown: His tag
Experiment: co-immunoprecipitation, anti-FLAG IP and anti-Dock180 blot, COS-7 cells (FIG. 20B lane 9)
Excerpt: COS-7 cells were transfected with the indicated plasmids and the lysates were immunoprecipitated with anti-FLAG antibody and immunoblotted with anti-Dock180 (a mixture of N- and C-terminal antibodies). The same blot was stripped and reprobed with anti-FLAG to determine expression of the FLAG-tagged proteins. Immunoblotting of total lysates indicated the expression of Dock180 in the appropriate lanes. FIG. 20C is a photograph of a blot showing that ELMO1 and ELMO2 interact with Dock180. COS-7 cells were transfected as above with plasmids coding for FLAG-tagged ELMO1, ELMO2, the N-term or C-term versions of ELMO1 along with His-Dock180. After anti-FLAG immunoprecipitation, the coprecipitation of Dock180 was analyzed by immunoblotting. FIG. 20D is a photograph of a blot showing that CED-12 interacts with CED-5, but not Rac in a yeast two-hybrid assay. Interaction between Caenorhabditis elegans CED-12 and CED-5 as well as Rac wt and mutants were analyzed by yeast two-hybrid interaction as described in the Experimental procedures. Growth seen on selective plates is shown. FIG. 20E is a photograph of a blot showing that formation of a trimeric complex between ELMO1, CrkII and Dock180. […]
It was determined whether there might be a physical interaction between ELMO1 and Dock180, Rac or CrkII. […]

B1: FLAG-tagged human CED-6 (other, UniProt Q9UBP9 1-304, looked up)
chain: MNRAFSRKKDKTWMHTPEALSKHFIPYNAKFLGSTEVEQPKGTEVVRDAVRKLKFARHIKKSEGQKIPKVELQISIYGVKILEPKTKEVQHNCQLHRISFCADDKTDKRIFTFICKDSESNKHLCYVFDSEKCAEEITLTIGQAFDLAYRKFLESGGKDVETRKQIAGLQKRIQDLETENMELKNKVQDLENQLRITQVSAPPAGSMTPKSPSTDIFDMIPFSPISHQSSMPTRNGTQPPPVPSRSTEIKRDLFGAEPFDPFNCGAADFPPDIQSKLDEMQEGFKMGLTLEGTVFCLDPLDSRC
notes: not shown: FLAG tag
B1: no binding.
